Substitutions are numbered along the chain they refer to.

Usually Kd stands for the concentration at which binding is half-saturated.

The target of one data set is LacI (Escherichia coli) (UniProt P03023). The following applies: cited from earlier work.
Data set [1] has as its target LacI dimeric (lac repressor, tetramerization domain removed) (Escherichia coli, UniProt P03023 1-331). The experiment in a line: BLI; no IPTG; BLI: PBS with 0.2% BSA, 0.05% Tween-20, pH 8.0, room temperature, LacI 0-40 nM, global 1:1 kinetic fit; HDX/MS: 50 mM MOPS, 200 mM NaCl, 0.5 mM TCEP, pH 7.0, equilibrated at 4 C. The note with it: protein: recombinant; 6xHis removed with TEV protease; chain copies: 2; label: 5'-biotin on forward strand; blunt. Background: BLI is a label-free optical method that tracks binding on a fibre tip over time.

Data set [2] concerns the molecule itself. As to the kind of experiment: SEC; purified LacI(1-331) after tag removal, buffer and concentration not given.

Take LacI (from UniProt P03023): the Kd with LacI (Escherichia coli) was 80 nM.

B1: Olac (LacO1 natural operator, BLI) (dsDNA)
DNA 1: AGTAGTGGAATTGTGAGCGGATAACAATTGACATTGTGAGCGGATAACAAGATACTGAGCACATCAGC
DNA 2: GCTGATGTGCTCAGTATCTTGTTATCCGCTCACAATGTCAATTGTTATCCGCTCACAATTCCACTACT
Turning to B1, the Kd in data set [1] was found to be 9.5 nM.

B2: dimeric LacI (lac repressor, residues 1-331, without the tetramerization domain) (domain or fragment, E. coli, UniProt P03023 1-331, looked up)
chain: MKPVTLYDVAEYAGVSYQTVSRVVNQASHVSAKTREKVEAAMAELNYIPNRVAQQLAGKQSLLIGVATSSLALHAPSQIVAAIKSRADQLGASVVVSMVERSGVEACKAAVHNLLAQRVSGLIINYPLDDQDAIAVEAACTNVPALFLDVSDQTPINSIIFSHEDGTRLGVEHLVALGHQQIALLAGPLSSVSARLRLAGWHKYLTRNQIQPIAEREGDWSAMSGFQQTMQMLNEGIVPTAMLVANDQMALGAMRAITESGLRVGADISVVGYDDTEDSSCYIPPLTTIKQDFRLLGQTSVDRLLQLSQGQAVKGNQLLPVSLVKRKTTLA
notes: E. coli lac repressor (LacI), residues 1-331, tetramerization domain truncated; vector pET9a-6×His-LacI(1-331); His tag removed with TEV protease; also called LacI(1-331); apo-LacI; source: E. coli BL21(AI) ΔlacI-ZYA, purified (Ni-NTA, TEV cleavage, second Ni-NTA flowthrough)
With B2, the binding result in data set [2] is given as “binds”.

B3: Osyn (perfectly symmetric synthetic operator) (dsDNA)
DNA 1: AGTAGTCTAGAATTGTGAGCGCTCACAATTCTAGAGTAGT
DNA 2: B3 DNA 1 with G2C, G5C, G36C, G39C
With B3, the Kd in data set [1] turned out to be 1.1 nM.

Values taken from article PMC9977783, “Ligand-specific changes in conformational flexibility mediate long-range allostery in the lac repressor” (Nature Communications, 2021).
